Measurements as given in JP2003513027A.
pKd: −log10 of the molar value. Where “and” joins values, the source holds several entries; their conditions need not be identical. Equal values may be shown once.

What was measured:
[1] = molecular target: Cu-OxLDL (copper-oxidised low density lipoprotein); experiment: 125I-Cu-OxLDL binding to mouse peritoneal macrophages on ice, IK17 as competitor, % of control without competitor
[2] = molecular target: MDA-LDL (malondialdehyde-modified low density lipoprotein); experiment: direct binding and competition assays with affinity-purified Fab
[3] = molecular target: Cu-OxLDL (copper-oxidised low density lipoprotein); experiment: cell-based or functional assay

% inhibition of the binding of 125I-Cu-OxLDL to macrophages [1]: 70% and 85% | pKd [2]: 7.43 | degradation of 125I-Cu-OxLDL by macrophages (TCA-soluble 125I in the medium), % inhibition [3]: 50% and 65%
Substance: IK17 human monoclonal IgG Fab
